The text below walks through data of patent publication US20120263644A1.

This assay concerns the target leukocyte function antigen-1 (LFA-1), composed of CD11a and CD18, on human white blood cells (human) (UniProt P20701). The experiment in a line: cell-based or functional assay.

Sequence of leukocyte function antigen-1 (LFA-1), composed of CD11a and CD18, on human white blood cells (human) (P20701 26-1170, chain 1 of 2): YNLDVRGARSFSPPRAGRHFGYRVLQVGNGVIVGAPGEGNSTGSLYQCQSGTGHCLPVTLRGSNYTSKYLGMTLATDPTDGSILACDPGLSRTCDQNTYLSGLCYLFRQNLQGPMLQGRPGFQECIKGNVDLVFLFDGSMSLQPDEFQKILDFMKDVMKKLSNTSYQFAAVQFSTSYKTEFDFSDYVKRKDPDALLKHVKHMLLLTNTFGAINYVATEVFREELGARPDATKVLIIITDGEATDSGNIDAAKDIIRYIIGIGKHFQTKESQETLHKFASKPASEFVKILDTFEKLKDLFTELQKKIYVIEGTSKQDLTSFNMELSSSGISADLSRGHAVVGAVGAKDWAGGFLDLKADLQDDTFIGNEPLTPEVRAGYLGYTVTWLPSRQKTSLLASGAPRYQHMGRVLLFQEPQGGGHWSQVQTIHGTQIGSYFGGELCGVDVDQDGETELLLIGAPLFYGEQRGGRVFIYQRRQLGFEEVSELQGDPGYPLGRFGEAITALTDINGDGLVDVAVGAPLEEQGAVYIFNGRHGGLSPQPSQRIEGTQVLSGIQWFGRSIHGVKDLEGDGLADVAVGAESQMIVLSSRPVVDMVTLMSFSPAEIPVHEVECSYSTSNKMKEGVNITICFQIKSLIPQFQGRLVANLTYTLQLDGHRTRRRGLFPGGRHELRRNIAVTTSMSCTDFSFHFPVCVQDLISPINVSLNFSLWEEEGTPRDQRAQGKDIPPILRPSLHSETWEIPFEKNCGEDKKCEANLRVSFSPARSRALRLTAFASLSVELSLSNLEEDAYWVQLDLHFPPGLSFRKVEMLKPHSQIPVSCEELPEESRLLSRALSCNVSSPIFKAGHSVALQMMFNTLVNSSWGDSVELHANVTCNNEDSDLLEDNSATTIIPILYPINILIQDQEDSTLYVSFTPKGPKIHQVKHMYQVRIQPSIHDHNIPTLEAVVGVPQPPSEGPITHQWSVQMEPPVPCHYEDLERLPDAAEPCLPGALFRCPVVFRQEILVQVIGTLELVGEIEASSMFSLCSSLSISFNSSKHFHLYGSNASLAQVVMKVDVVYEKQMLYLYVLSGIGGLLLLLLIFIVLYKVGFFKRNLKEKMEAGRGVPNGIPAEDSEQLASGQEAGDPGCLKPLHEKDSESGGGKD
Sequence of leukocyte function antigen-1 (LFA-1), composed of CD11a and CD18, on human white blood cells (human) (P05107 23-769, chain 2 of 2, further chain): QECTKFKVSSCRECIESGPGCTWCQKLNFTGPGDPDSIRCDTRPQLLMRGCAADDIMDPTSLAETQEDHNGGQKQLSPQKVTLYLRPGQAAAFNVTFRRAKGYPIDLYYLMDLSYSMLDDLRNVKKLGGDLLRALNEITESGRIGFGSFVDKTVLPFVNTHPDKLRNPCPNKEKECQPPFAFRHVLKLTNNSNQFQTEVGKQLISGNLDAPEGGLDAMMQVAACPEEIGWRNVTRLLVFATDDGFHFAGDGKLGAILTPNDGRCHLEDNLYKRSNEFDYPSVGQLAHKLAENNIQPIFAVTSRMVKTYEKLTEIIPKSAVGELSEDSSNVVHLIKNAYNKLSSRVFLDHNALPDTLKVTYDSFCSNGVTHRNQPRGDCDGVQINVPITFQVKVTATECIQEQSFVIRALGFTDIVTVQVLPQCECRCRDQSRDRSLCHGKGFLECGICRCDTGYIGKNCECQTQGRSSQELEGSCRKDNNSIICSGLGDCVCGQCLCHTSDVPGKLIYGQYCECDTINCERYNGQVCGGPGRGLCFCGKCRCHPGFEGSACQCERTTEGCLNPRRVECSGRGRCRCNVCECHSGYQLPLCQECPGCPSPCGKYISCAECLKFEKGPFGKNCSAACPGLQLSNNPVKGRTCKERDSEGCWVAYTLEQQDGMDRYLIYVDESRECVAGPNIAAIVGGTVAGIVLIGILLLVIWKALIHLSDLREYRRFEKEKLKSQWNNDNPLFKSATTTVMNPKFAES

In turn, “Efalizumab (RAPTIVA), anti-LFA-1 mAb (antibody)” displayed an IC50 of inhibition of proliferation of Jurkat cells (CellTiter Glo) of 5000 µg/mL.
